According to article PMC3325965, “Structural Basis of the Chromodomain of Cbx3 Bound to Methylated Peptides from Histone H1 and G9a” (PLoS ONE, 2012):

Target: Histone H3K9me3 peptide (Homo sapiens) (UniProt P68431)
Experiment: not given
Conditions: cited from earlier work

Cbx3 chromodomain, sequence (Q13185 30-88): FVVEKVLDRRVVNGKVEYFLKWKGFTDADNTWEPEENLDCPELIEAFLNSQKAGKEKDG

| Substance | Kd [µM] |
| --- | --- |
| Cbx3 chromodomain (from UniProt Q13185) | 15 |

Target: human Cbx3 chromodomain (residues 29–86) (human) (UniProt Q13185)
Experiment: ITC; peptide solution (1–2 mM) injected into the cell with Cbx3 chromodomain (40–100 mM [sic]) in 20 mM Tris–HCl, pH 7.5, 150 mM NaCl; one-site binding model
Conditions: not given

human Cbx3 chromodomain (residues 29–86) (human), sequence (Q13185 29-86): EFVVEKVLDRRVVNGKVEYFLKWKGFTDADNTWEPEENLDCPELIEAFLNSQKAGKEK

| Substance | Kd [µM] |
| --- | --- |
| histone H1.4(18–29) peptide, K26 dimethylated | 52 |
| G9a(179–190) peptide, K185 monomethylated | 28 |

Now from value to substance:

| Kd [µM] | Substance |
| --- | --- |
| 14 | G9a(179–190) peptide, K185 trimethylated |
| 21 | histone H1.4(18–29) peptide, K26 trimethylated |
| 9 | G9a(179–190) peptide, K185 dimethylated |
